Laboratory results published in patent US6642353B1, “Peptide ligands for the erythropoietin receptor” (Chugai Seiyaku Kabushiki Kaisha, priority 2000, dated 2003).
Positions of bridges follow the written chain, without caps; N, C: chain ends. Residues, ends and D or L forms follow the SMILES beside them. No end group written: not given here.

T1: chimeric Ig-EPOR protein (human; murine, UniProt P19235 25-250)
T1 construct: extracellular domain; Secreted from COS-7 cells transfected with pcDNA3-IgG1-EPOR; major species about 59 kDa; also called IgG-EPOR; chimeric receptor; not shown: hinge region, CH2 and CH3 domains of the murine IgG1 heavy chain
T1 sequence (looked up): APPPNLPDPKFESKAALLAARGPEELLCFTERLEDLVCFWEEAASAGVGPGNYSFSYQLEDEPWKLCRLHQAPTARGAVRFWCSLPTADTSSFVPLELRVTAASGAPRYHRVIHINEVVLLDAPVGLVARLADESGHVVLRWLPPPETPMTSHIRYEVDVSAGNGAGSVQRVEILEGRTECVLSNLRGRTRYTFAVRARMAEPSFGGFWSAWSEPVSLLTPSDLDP


Key:
chimeric Ig-EPOR protein [1] = target: T2, chimeric Ig-EPOR protein (Homo sapiens, UniProt P19235); assay: peptide inhibition ELISA (binding of Ig-EPOR to EPO-coated plates); settings: for EPOR binding activity: N-terminal truncations of ERB1-7
T2 construct: a fusion protein having domains corresponding to murine IgG1 and the extracellular domain (ECD) of the human EPOR; made in house; secreted into the medium
Procedure: The wells were washed three times with PBS containing 0.05% (v/v) TWEEN® 20 non-ionic detergent, and then blocked with 1% (w/v) BSA and 0.05% TWEEN® 20 in PBS (blocking buffer) to prevent non-specific binding. Excess blocking buffer was removed by washing once. Culture media was serially diluted in blocking buffer, and 50 μl from each dilution was added to the coated and blocked wells. Wells receiving undiluted media served as a control. A set of uncoated wells also received the diluted cell-free media. Plates were then incubated for 2 hours at room temperature, and washed three times as described above. After removing unbound chimeric receptor by washing, bound chimeric protein was assayed using 100 μl of the HRP labeled anti-murine IgG antibody, substantially as described above. Color development was initiated by addition of 100 μl of the TMB peroxidase substrate, and the extent of the peroxidase reaction measured spectrophotometrically at 450 nm and 650 nm, as described above.
Synthetic peptides having the sequences […] (SEQ ID NO:81), and […] (SEQ ID NO:82) were synthesized in the cyclic (disulfide-bonded) form using standard procedures (Peninsula Laboratories, Belmont, Calif.). The 18-mer peptide sequences were derived from the B7 and B8 clones, and the peptides are referred to herein as “ERB1-7” (SEQ ID NO:81) and “ERB1-8” (SEQ ID NO:82), respectively. The structures of the two purified peptides, each being greater than 95% pure as judged by HPLC, were confirmed by mass spectrometry. […] Such synthetic peptides are EPO mimetics.
Synthetic peptides corresponding to the sequence of ERB1-7, but missing either one, two, three or four N-terminal amino acids were tested in the peptide inhibition ELISA protocol. The following peptides were synthesized and tested substantially as described in Example 8: 18-mer peptide ERB1-7, consisting of […] (SEQ ID NO:81);

chimeric Ig-EPOR protein [2] = target: T1, chimeric Ig-EPOR protein; assay: biopanning of the ERB1 evolved library with Ig-EPOR (FIG. 4)
Procedure: The beads were washed three times in TBST (Tris buffered saline containing 0.1% (v/v) TWEEN® 20) and then suspended in 1 ml blocking medium (TBS SUPERBLOCK®). Phage in 100 μl aliquots containing about 1 ×10^10 plaque forming units (pfu) were added to the beads and the mixtures rotated gently for 2 hrs at room temperature. After washing the beads five times in TBST, phage were eluted with 300 μl of 50 mM glycine buffer (pH 2.2) for 10 min at room temperature. Eluted phage were immediately neutralized with 8 μl 2M Tris base that had not been pH-adjusted, mixed and stored at 4° C. Phage isolated by biopanning were amplified by mixing equal volumes of eluted phage and an overnight culture of E. coli strain JS5, diluting the mixture in 20 ml 2xYT containing tetracycline (12.0 μg/ml), and incubating overnight with shaking at 37° C. The resulting phage lysates were cleared of cell debris by centrifugation for 5 min in a microfuge, and 100 μl of the resulting supernatant lysate was used for a subsequent round of biopanning. All phage titering was carried out using JS5 bacteria plated on 2xYT top agar and agar plates.
Several random phage clones also were isolated from the evolved library, to represent non-binding clones.

chimeric Ig-EPOR protein [3] = target: T1, chimeric Ig-EPOR protein; assay: phage ELISA, relative to ERB1
Procedure: (§1) To better characterize the phage isolates having binding specificity for the EPOR, we compared the relative affinities of the binding clones presented in FIG. 4, using a phage ELISA procedure. Phage stocks of the binding clones were titered in triplicate to accurately determine the concentration of pfu/ml for each lysate. Different isolates were then assayed by ELISA using normalized phage concentrations so that all clones were tested using equivalent numbers of phage.

chimeric Ig-EPOR protein [4] = target: T1, chimeric Ig-EPOR protein; assay: phage ELISA with normalized phage concentrations
Procedure: as §1

chimeric Ig-EPOR protein [5] = target: T1, chimeric Ig-EPOR protein; assay: peptide inhibition ELISA: Ig-EPOR binding to EPO-coated plates
Source text: Thus, the consensus 12-mer peptide sequence given by SEQ ID NO:12 likely was necessary but not sufficient to create synthetic peptides having high affinity for the EPOR.

Row | Molecule | binding result (chimeric Ig-EPOR protein [2]) | relative affinity (Rel. Aff., ERB1 = 1.0) (chimeric Ig-EPOR protein [3]) | also measured
1 | CC(C)[C@@H]1NC(=O)[C@H](Cc2c[nH]c3ccccc23)NC(=O)CNC(=O)[C@H](CCCNC(=N)N)NC(=O)[C@H](CCCNC(=N)N)NC(=O)[C@@H](NC(=O)CNC(=O)[C@H](CCC(=O)O)NC(=O)[C@H](CCCNC(=N)N)NC(=O)[C@@H](N)CC(=O)O)CSSC[C@@H](C(=O)N[C@@H](CCCCN)C(=O)N[C@@H](C)C(=O)N[C@@H](Cc2c[nH]c3ccccc23)C(=O)N[C@@H](Cc2ccccc2)C(=O)N[C@@H](CC(N)=O)C(=O)O)NC(=O)[C@H](CCC(N)=O)NC(=O)CNC1=O [ERB1-7] (H-DREGCRRGWVGQCKAWFN-OH; disulfide 5-13; N-terminus and C-terminus assumed) |  |  | IC50 (chimeric Ig-EPOR protein [1]): ~45 nM
2 | CC(C)C[C@H](NC(=O)[C@H](Cc1c[nH]c2ccccc12)NC(=O)[C@H](Cc1ccc(O)cc1)NC(=O)[C@H](CC(N)=O)NC(=O)[C@@H]1CSSC[C@H](NC(=O)[C@H](C)NC(=O)[C@H](CCC(=O)O)NC(=O)[C@@H](NC(=O)[C@@H](N)CC(=O)O)C(C)C)C(=O)NCC(=O)NCC(=O)NCC(=O)N[C@@H](Cc2c[nH]c3ccccc23)C(=O)N[C@@H](C(C)C)C(=O)NCC(=O)N[C@@H](Cc2c[nH]cn2)C(=O)N1)C(=O)N[C@@H](CCCNC(=N)N)C(=O)O [ERB1-8] (H-DVEACGGGWVGHCNYWLR-OH; disulfide 5-13; N-terminus and C-terminus assumed) |  |  | IC50 (chimeric Ig-EPOR protein [1]): ~45 nM
3 | CRRGWVGQCKAWFN [7N-4] |  |  | EPOR binding activity (chimeric Ig-EPOR protein [1]): abolished EPOR binding activity
4 | GCRRGWVGQCKAWFN [7N-3] |  |  | EPOR binding activity (chimeric Ig-EPOR protein [1]): abolished EPOR binding activity
5 | DFEDCQGGWVGHCNDWLGDEYARHPRYGATQTLSVNRH (not shown: M13 phage pIII coat protein) [phage clone B9] | binds |  | 
6 | ALDVGRWDGVGHCKGCLKDEYTTLDSKNNPQISQVSPT (not shown: M13 phage pIII coat protein) [phage clone N11] |  | < 0.1 | 
7 | DVEVGRRACVGYCQEFLRDEYTATPSYPDKHSNYLNPP (not shown: M13 phage pIII coat protein) [phage clone N12] |  | < 0.1 | 
8 | DVHECRPGWVGHCKDWLSDEYASNRRSPEPHRNYPIPP (not shown: M13 phage pIII coat protein) [phage clone B1] | binds |  | 
9 | YSDVCRRGWVGHCEDWLGDEYSSQPSYALPHSTSLNPR (not shown: M13 phage pIII coat protein) [phage clone B18] | binds |  | 
10 | DIAVCRGGCVGLCEEGLRDEYACNVKKPVPHSYKLNTP (not shown: M13 phage pIII coat protein) [phage clone N13] |  | < 0.1 | 
11 | EWVYSRQSWGGQWKDGVRDEYTMTPGDPVANKYSLMTP (not shown: M13 phage pIII coat protein) [phage clone N6] |  | < 0.1 | 
12 | DREGCRRGWVGQCKAWFNDEYAKPPKKPFRNSYSLGPA (not shown: M13 phage pIII coat protein) [phage clone B7] |  |  | fold affinity relative to the parent ERB1 clone (chimeric Ig-EPOR protein [4]): ~20 fold
13 | DLEGCRLGWVGHCNVWGGDEYTKRTSHSVPPSHKSKLL (not shown: M13 phage pIII coat protein) [phage clone B19] | binds |  | 
14 | DLNVGCPGYVGHCADWLGDEYPVHPNPEVPQTLNLKPH (not shown: M13 phage pIII coat protein) [phage clone N3] |  | < 0.1 | 
15 | DFEGSLREWDGDWPEWLRDEYARPSYPNPHKANQKPP (not shown: M13 phage pIII coat protein) [phage clone N10] |  | < 0.1 | 
16 | EGEVCLPGWVGHCKYWLMDEYANIPRNPTPRSNELKPP (not shown: M13 phage pIII coat protein) [phage clone B13] | binds |  | 
17 | GLNICRPGWVGHCNDSLRDEYATNPRTPGPLSYNLQPT (not shown: M13 phage pIII coat protein) [phage clone N8] |  | < 0.1 | 

Row | Molecule | binding result (chimeric Ig-EPOR protein [2]) | relative affinity (Rel. Aff., ERB1 = 1.0) (chimeric Ig-EPOR protein [3]) | also measured
18 | LLQMCSPGWVGHCNDWPRDEYANNPPNPVVDRQALTPP (not shown: M13 phage pIII coat protein) [phage clone B17] | binds |  | 
19 | DLAGCRRGWVGHCSEWLRDEYTSNPRYPVAPSYRLQPP (not shown: M13 phage pIII coat protein) [phage clone B20] | binds |  | 
20 | NSDVTRRGWADHWREWNWDEYASTPTHPASHSSYLNPP (not shown: M13 phage pIII coat protein) [phage clone N5] |  | < 0.1 | 
21 | SLEPCRGGWVGHCNEWQRDEYAINPKWPNAPIEDPNPL (not shown: M13 phage pIII coat protein) [phage clone B6] | binds |  | 
22 | DLEVCRGGWVGHCKDWIWDEYARNPRYPDPQRKEVKSP (not shown: M13 phage pIII coat protein) [phage clone B10] | binds |  | 
23 | DVEVCRGGWVGHCNAWLRDEYNRQPKKPVQQQVVYSTR (not shown: M13 phage pIII coat protein) [phage clone B16] | binds |  | 
24 | GKEVCRRGWVGHCQEWPMDEYTRNPSHPVPHNSRHKTP (not shown: M13 phage pIII coat protein) [phage clone B3] | binds |  | 
25 | GWAGCRSGGAGQCKEGAGDEYAENPSYPVPPRKHLNRL (not shown: M13 phage pIII coat protein) [phage clone N2] |  | < 0.1 | 
26 | SVDVCNQGGVGRCNDGLGDEYASKPSYQEAPRYNPNLR (not shown: M13 phage pIII coat protein) [phage clone N9] |  | < 0.1 | 
27 | EFVVWPRGWVGHCKGCRVDEYSGDPSNLEAQTHDMNFQ (not shown: M13 phage pIII coat protein) [phage clone N7] |  | < 0.1 | 
28 | AKVVCRNGWVGHCSAWLTDEYESNPNTRIPNTFDMKTP (not shown: M13 phage pIII coat protein) [phage clone B21] | binds |  | 
29 | QVDTCTRGWVGHCNAWMGDEYAKTPGLPMPQSDYLKPR (not shown: M13 phage pIII coat protein) [phage clone B15] | binds |  | 
30 | DVEACGGGWVGHCNYWLRDEYASKPIKQVPPGNHNQPS (not shown: M13 phage pIII coat protein) [phage clone B8] |  |  | fold affinity relative to the parent ERB1 clone (chimeric Ig-EPOR protein [4]): ~20 fold
31 | RLEDGDEGRVWHSSDLLSDEYASTPSYPLTPNYYEYPP (not shown: M13 phage pIII coat protein) [phage clone N1] |  | < 0.1 | 
32 | REGCRRGWVGQCKAWFN (disulfide 4-12 (inferred), N-terminal truncation of ERB1-7) [17-mer peptide 7N-1] |  |  | IC50 (chimeric Ig-EPOR protein [5]): 91 nM
33 | ELDMLRGGGVGQSKESLRDEYDHKTSTPVPPNQKLPPP (not shown: M13 phage pIII coat protein) [phage clone N4] |  | < 0.1 | 
